# Test results as given in paper PMC4277767 (ACS Synthetic Biology, 2014).
# B1: VP16-CIB1 (CIB1 fused to a VP16 activation domain) (natural protein, Arabidopsis, UniProt Q8GY61 1-335, looked up)
# chain: MNGAIGGDLLLNFPDMSVLERQRAHLKYLNPTFDSPLAGFFADSSMITGGEMDSYLSTAGLNLPMMYGETTVEGDSRLSISPETTLGTGNFKKRKFDTETKDCNEKKKKMTMNRDDLVEEGEEEKSKITEQNNGSTKSIKKMKHKAKKEENNFSNDSSKVTKELEKTDYIHVRARRGQATDSHSIAERVRREKISERMKFLQDLVPGCDKITGKAGMLDEIINYVQSLQRQIEFLSMKLAIVNPRPDFDMDDIFAKEVASTPMTVVPSPEMVLSGYSHEMVHSGYSSEMVNSGYLHVNPMQQVNTSSDPLSCFNNGEAPSMWDSHVQNLYGNLGV
# Molecular target: LexA-CRY2 (CRY2 fused to the LexA DNA binding domain) (Arabidopsis, UniProt Q96524 1-612)
# Test: two-hybrid
# Sequence of LexA-CRY2 (CRY2 fused to the LexA DNA binding domain) (Q96524 whole entry, the tested form may be a part): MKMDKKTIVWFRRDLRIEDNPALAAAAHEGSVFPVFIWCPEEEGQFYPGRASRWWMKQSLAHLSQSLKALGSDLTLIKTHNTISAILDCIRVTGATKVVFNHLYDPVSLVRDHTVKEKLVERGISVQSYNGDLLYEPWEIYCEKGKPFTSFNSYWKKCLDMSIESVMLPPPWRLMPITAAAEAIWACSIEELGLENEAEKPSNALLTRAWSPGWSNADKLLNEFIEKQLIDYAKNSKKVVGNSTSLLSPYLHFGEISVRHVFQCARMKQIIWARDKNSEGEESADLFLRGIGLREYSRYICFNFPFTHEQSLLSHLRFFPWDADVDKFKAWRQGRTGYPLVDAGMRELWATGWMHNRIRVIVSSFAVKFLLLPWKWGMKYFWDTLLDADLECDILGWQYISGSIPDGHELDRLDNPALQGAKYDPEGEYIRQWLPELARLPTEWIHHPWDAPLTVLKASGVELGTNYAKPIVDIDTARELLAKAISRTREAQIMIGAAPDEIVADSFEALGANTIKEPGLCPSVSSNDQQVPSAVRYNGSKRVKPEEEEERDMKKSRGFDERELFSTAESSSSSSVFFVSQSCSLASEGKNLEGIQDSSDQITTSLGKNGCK
binder,measurement,value
B1,fold stimulation of reporter activity by blue light over dark,~100 fold
